Assay results: article PMC2844151

Target: T1, Mycobacterium tuberculosis cAMP receptor protein (Rv3676) (Mycobacterium tuberculosis), P9WMH3
T1 chain: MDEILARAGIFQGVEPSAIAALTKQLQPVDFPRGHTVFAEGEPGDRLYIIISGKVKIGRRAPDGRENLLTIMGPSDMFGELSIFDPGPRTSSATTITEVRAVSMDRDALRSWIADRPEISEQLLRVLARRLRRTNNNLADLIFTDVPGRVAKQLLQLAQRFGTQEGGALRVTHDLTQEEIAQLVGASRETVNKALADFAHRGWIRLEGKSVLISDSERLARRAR
Assay: cross-linking
Details: remark: other sources report otherwise

B1: Mycobacterium tuberculosis cAMP receptor protein (Rv3676), P9WMH3 1-224 (natural protein)
chain: MDEILARAGIFQGVEPSAIAALTKQLQPVDFPRGHTVFAEGEPGDRLYIIISGKVKIGRRAPDGRENLLTIMGPSDMFGELSIFDPGPRTSSATTITEVRAVSMDRDALRSWIADRPEISEQLLRVLARRLRRTNNNLADLIFTDVPGRVAKQLLQLAQRFGTQEGGALRVTHDLTQEEIAQLVGASRETVNKALADFAHRGWIRLEGKSVLISDSERLARRAR
  stoichiometry N: 2
